Columns and labels:
Assay in all cases: cell-based or functional assay
[1] = biological target: SARS-CoV-2 KP.3.1.1 spike (S) protein (SARS-CoV-2)
[2] = biological target: SARS-CoV-2 KP.2.3 spike (S) protein (SARS-CoV-2)
[3] = biological target: SARS-CoV-2 KP.3 spike (S) protein (SARS-CoV-2)
[4] = biological target: SARS-CoV-2 LB.1 spike (S) protein (SARS-CoV-2)
[5] = biological target: SARS-CoV-2 KP.2 spike (S) protein (SARS-CoV-2)
[6] = biological target: SARS-CoV-2 HK.3 spike (S) protein (SARS-CoV-2)
[7] = biological target: SARS-CoV-2 BA.2.86 spike (S) protein (SARS-CoV-2)
[8] = biological target: SARS-CoV-2 B.1.1.7 spike (S) protein (SARS-CoV-2)
[9] = biological target: SARS-CoV-2 B.1.617.2 spike (S) protein (SARS-CoV-2)
[10] = biological target: SARS-CoV-2 XBB.2.3.2 spike (S) protein (SARS-CoV-2)
[11] = biological target: SARS-CoV-2 spike (S) protein, B.1.617.2 (SARS-CoV-2)
[12] = biological target: SARS-CoV-2 B.1.351 spike (S) protein (SARS-CoV-2)
[13] = biological target: SARS-CoV-2 XBB spike (S) protein (SARS-CoV-2)
[14] = biological target: SARS-CoV-2 B.1.621 spike (S) protein (SARS-CoV-2)
[15] = biological target: SARS-CoV-2 B.1.525 spike (S) protein (SARS-CoV-2)
[16] = biological target: SARS-CoV-2 CH.1.1 spike (S) protein (SARS-CoV-2)
[17] = biological target: SARS-CoV-2 P.1 spike (S) protein (SARS-CoV-2)
[18] = biological target: SARS-CoV-2 P.2 spike (S) protein (SARS-CoV-2)
[19] = biological target: SARS-CoV-2 FL.1.5.1 spike (S) protein (SARS-CoV-2)
[20] = biological target: SARS-CoV-2 B.1.429 spike (S) protein (SARS-CoV-2)
[21] = biological target: SARS-CoV-2 BA.4/5 spike (S) protein (SARS-CoV-2)
[22] = biological target: SARS-CoV-2 XBB.1.5 spike (S) protein (SARS-CoV-2)
[23] = biological target: SARS-CoV-2 B.1.617.1 spike (S) protein (SARS-CoV-2)
[24] = biological target: SARS-CoV-2 XBB.1.16.6 spike (S) protein (SARS-CoV-2)
[25] = biological target: SARS-CoV-2 JN.1 spike (S) protein (SARS-CoV-2)
[26] = biological target: SARS-CoV-2 spike (S) protein, B.1.351 (SARS-CoV-2)
[27] = biological target: SARS-CoV-2 EG.5.1 spike (S) protein (SARS-CoV-2)
[28] = biological target: SARS-CoV-2 B.1.427 spike (S) protein (SARS-CoV-2)
[29] = biological target: SARS-CoV-2 BA.1 spike (S) protein (SARS-CoV-2)
[30] = biological target: SARS-CoV-2 JF.1 spike (S) protein (SARS-CoV-2)
[31] = biological target: SARS-CoV-2 JD.1.1 spike (S) protein (SARS-CoV-2)
[32] = biological target: SARS-CoV-2 B.1.526 spike (S) protein (SARS-CoV-2)
[33] = biological target: SARS-CoV-2 HV.1 spike (S) protein (SARS-CoV-2)
[34] = biological target: SARS-CoV-2 Omicron sublineage CH.1.1 spike (S) protein (SARS-CoV-2)
[35] = biological target: SARS-CoV-2 Omicron sublineage BF.7 spike (S) protein (SARS-CoV-2)
[36] = biological target: SARS-CoV-2 spike (S) protein, Omicron sublineage BA.2.75.2 (SARS-CoV-2)
[37] = biological target: SARS-CoV-2 spike (S) protein, Omicron sublineage XBB.1.5 (SARS-CoV-2)
[38] = biological target: SARS-CoV-2 spike (S) protein, Omicron sublineage BA.4/5 (SARS-CoV-2)
[39] = biological target: SARS-CoV-2 spike (S) protein, Omicron sublineage XBB (SARS-CoV-2)
[40] = biological target: SARS-CoV-2 spike (S) protein, Omicron sublineage BQ.1.1 (SARS-CoV-2)

ADG20 (antibody)
pseudovirus neutralization IC50 [1]: > 67 nM
pseudovirus neutralization IC80 [1]: > 67 nM
pseudovirus neutralization IC50 [2]: > 67 nM
pseudovirus neutralization IC80 [2]: > 67 nM
pseudovirus neutralization IC50 [3]: > 67 nM
pseudovirus neutralization IC80 [3]: > 67 nM
pseudovirus neutralization IC50 [4]: > 67 nM
pseudovirus neutralization IC80 [4]: > 67 nM
pseudovirus neutralization IC50 [5]: > 67 nM
pseudovirus neutralization IC80 [5]: > 67 nM

AZD3152 (antibody)
pseudovirus neutralization IC50 [6]: > 10 µg/mL
pseudotyped neutralization potency IC50 [7]: 1.8 nM
pseudotyped neutralization potency IC80 [7]: 5.4 nM
pseudovirus neutralization IC50 [7]: 0.053 µg/mL
pseudovirus neutralization IC50 [8]: 0.093 µg/mL
pseudovirus neutralization IC50 [9]: 0.09 µg/mL
pseudotyped neutralization potency IC50 [10]: 0.0806 nM
pseudotyped neutralization potency IC80 [10]: 0.488 nM
pseudovirus neutralization IC50 [10]: 0.025 µg/mL
IC50, pseudotyped neutralization potency [11]: 0.281 nM
IC80, pseudotyped neutralization potency [11]: 0.518 nM
pseudovirus neutralization IC50 [12]: 0.024 µg/mL
pseudovirus neutralization IC50 [13]: 0.011 µg/mL
pseudovirus neutralization IC50 [14]: 0.04 µg/mL
pseudovirus neutralization IC50 [15]: 0.1 µg/mL
pseudovirus neutralization IC50 [16]: 0.045 µg/mL
pseudovirus neutralization IC50 [17]: 0.047 µg/mL
pseudovirus neutralization IC50 [18]: 0.02 µg/mL
pseudotyped neutralization potency IC50 [19]: > 66.7 nM
pseudotyped neutralization potency IC80 [19]: > 66.7 nM
pseudovirus neutralization IC50 [19]: > 10 µg/mL
pseudovirus neutralization IC50 [20]: 0.082 µg/mL
pseudovirus neutralization IC50 [21]: 0.03 µg/mL
pseudovirus neutralization IC50 [22]: 0.016 µg/mL
pseudovirus neutralization IC50 [23]: 0.041 µg/mL
pseudotyped neutralization potency IC50 [24]: > 66.7 nM
pseudotyped neutralization potency IC80 [24]: > 66.7 nM
pseudovirus neutralization IC50 [24]: > 10 µg/mL
pseudovirus neutralization IC50 [25]: 0.766 µg/mL
IC50, pseudotyped neutralization potency [26]: 0.023 nM
IC80, pseudotyped neutralization potency [26]: 0.041 nM
pseudotyped neutralization potency IC50 [27]: > 66.7 nM
pseudotyped neutralization potency IC80 [27]: > 66.7 nM
pseudovirus neutralization IC50 [27]: > 10 µg/mL
pseudovirus neutralization IC50 [28]: 0.09 µg/mL
pseudovirus neutralization IC50 [29]: 0.012 µg/mL
pseudovirus neutralization IC50 [30]: > 10 µg/mL
pseudovirus neutralization IC50 [31]: > 10 µg/mL
pseudovirus neutralization IC50 [32]: 0.049 µg/mL
pseudovirus neutralization IC50 [33]: > 10 µg/mL

LY1404 (antibody)
pseudotyped neutralization potency IC50 [34]: > 67 nM
pseudotyped neutralization potency IC80 [34]: > 67 nM
pseudotyped neutralization potency IC50 [35]: 0.02 nM
pseudotyped neutralization potency IC80 [35]: 0.18 nM
pseudotyped neutralization potency IC50 [36]: 0.04 nM
pseudotyped neutralization potency IC80 [36]: 0.14 nM
pseudotyped neutralization potency IC50 [37]: > 67 nM
pseudotyped neutralization potency IC80 [37]: > 67 nM
pseudotyped neutralization potency IC50 [38]: 0.01 nM
pseudotyped neutralization potency IC80 [38]: 0.02 nM
pseudotyped neutralization potency IC50 [39]: > 67 nM
pseudotyped neutralization potency IC80 [39]: > 67 nM
pseudotyped neutralization potency IC50 [40]: > 67 nM
pseudotyped neutralization potency IC80 [40]: > 67 nM

Reference: patent US20250326823A1
